In paper PMC3913574 one finds cell spreading assay: average surface area of MDCK+CADM1-GFP cells on CADM1-EC-Fc-coated glass against the same cells on control IgG data, which are given here for one molecule.

In the assay the target is T1, recombinant CADM1-EC-Fc protein consisting of the extracellular fragment domain of CADM1 fused to the Fc region of mouse IgG (UniProt Q9BY67).
T1 sequence: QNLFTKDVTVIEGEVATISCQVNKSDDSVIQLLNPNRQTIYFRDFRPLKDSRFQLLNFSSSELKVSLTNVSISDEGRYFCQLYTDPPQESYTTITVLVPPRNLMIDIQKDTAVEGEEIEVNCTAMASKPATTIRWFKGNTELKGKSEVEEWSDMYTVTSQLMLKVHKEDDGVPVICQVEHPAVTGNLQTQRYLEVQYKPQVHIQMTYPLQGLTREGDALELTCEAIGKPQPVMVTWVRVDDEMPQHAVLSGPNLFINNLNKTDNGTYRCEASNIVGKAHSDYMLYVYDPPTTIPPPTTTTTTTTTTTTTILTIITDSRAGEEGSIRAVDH

B1: CADM1-GFP on MDCK cells (MDCK+CADM1-GFP) (natural protein)
chain: QNLFTKDVTVIEGEVATISCQVNKSDDSVIQLLNPNRQTIYFRDFRPLKDSRFQLLNFSSSELKVSLTNVSISDEGRYFCQLYTDPPQESYTTITVLVPPRNLMIDIQKDTAVEGEEIEVNCTAMASKPATTIRWFKGNTELKGKSEVEEWSDMYTVTSQLMLKVHKEDDGVPVICQVEHPAVTGNLQTQRYLEVQYKPQVHIQMTYPLQGLTREGDALELTCEAIGKPQPVMVTWVRVDDEMPQHAVLSGPNLFINNLNKTDNGTYRCEASNIVGKAHSDYMLYVYDPPTTIPPPTTTTTTTTTTTTTILTIITDSRAGEEGSIRAVDHAVIGGVVAVVVFAMLCLLIILGRYFARHKGTYFTHEAKGADDAADADTAIINAEGGQNNSEEKKEYFI
For B1, the cell spreading assay: average surface area of MDCK+CADM1-GFP cells on CADM1-EC-Fc-coated glass against the same cells on control IgG came to 1.8 fold.
